Test results from US10323078B2, “Isolated peptides and fragments thereof from fibrinogen for use as drugs, particularly in skin inflammatory diseases” (Universite Paris Descartes, priority 2015, dated 2019).

How the values were obtained:
[1] = tested on: Pfg; experiment: Western ligand blot with biotinylated Pfg; assay type: binding, Propionibacterium acnes; conditions: biotinylated Pfg 0.1 μg/ml
[2] = tested on: P. acnes RON strain; experiment: Adhesion assay, biotinylated P. acnes binding to fibroblasts (HDF); assay type: cell-based, Propionibacterium acnes; conditions: bacteria pretreated 0.87 to 7 μM, 1 h at 37° C.
Protocol: The bacterial suspension was adjusted at 600 nm to the desired concentration, pretreated with peptides Fg1 and Fg2 at the final concentration ranging from 0.87 to 7 μM for 1 h at 37° C. and deposited on the previously saturated cells with a solution of PBS SVF 2% for 2 h. After incubation for 1 h at 37° C., unbound bacteria are removed by 3 washes with PBS and fixed bacteria are detected by a streptavidin-peroxidase solution of 0.5 μg/ml for 30 min.
Whole P. acnes bacteria are labelled by biotinylation, pre-treated or not with the peptides and contacted with the various cell lines. After removal of the unfixed bacteria, the adhesion activity was measured spectrophotometrically by using the streptavidin-peroxidase conjugate and a chromogenic substrate.
The ability of P. acnes strains 6919, RON and PIE was tested at 3 concentrations to adhere to various cells lines. It has been shown that the strains of P. acnes tested bound to the three kind of cell lines tested (keratinocytes, monocytes and fibroblast) with a maximum adhesion strength found for keratinocytes (FIG. 11). Knowing that P. acnes is able to recognize fibrinogen, it was used human and bovine whole fibrinogen to compete the interaction between the bacteria and the target cell. […] Then, the ability Fg1 to inhibit the adhesion of bacteria and RON PIE was evaluated on the 3 main types cell. […]

[3] = tested on: MRC5 cells; experiment: H2O2 production by P. acnes-stimulated MRC5; assay type: cell-based, human; conditions: bacteria first pretreated, 0.87 to 7 μM

| Molecule | Recognition by biotinylated Pfg after electrophoretic separation of fibrinogen ([1]; 10 μg per lane, 10% SDS-PAGE) | Inhibition of adhesion of P. acnes RON strain [2] | Recognition of GST-fused recombinant Bß fibrinogen fragments by biotinylated Pfg ([1]; E. coli total protein after IPTG induction, 12.5% SDS-PAGE) | Inhibition of Hydrogen peroxide (H2O2) production ([3]; P. acnes 6919, set I) | Inhibition of Hydrogen peroxide (H2O2) production ([3]; P. acnes PIE, set I) | Inhibition of Hydrogen peroxide (H2O2) production ([3]; P. acnes RON, set I) |
| --- | --- | --- | --- | --- | --- | --- |
| human fibrinogen: purified commercial human fibrinogen (Sigma), glycoprotein hexamer of Aα, Bß and γ chains | recognized by Pfg |  |  |  |  |  |
| MKRMVSWSFHKLKTMKHLLLLLLCVFLVKSQGVNDNEEGFFSARGHRPLDKKREEAPSLRPAPPPISGGGYRARPAKAAATQKKVERKAPDAGGCLHADPDLGVLC (protein, GST fusion; fragment Fg1, fragment of Bß chain of human fibrinogen having 106 amino acids; recombinant GST-fused peptide expressed in E. coli) MKRMVSWSFHKLKTMKHLLLLLLCVFLVKSQGVNDNEEGFFSARGHRPLDKKREEAPSLRPAPPPISGGGRARPAKAAATQKKVERKAPDAGGCLHADPDLGVLCMKRMVSWSFHKLKTMKHLLLLLLCVFLVKSQGVNDNEEGFFSARGHRPLDKKREEAPSLRPAPPPISGGGYRARPAKAAATQKKVERKAPDAGGCLHADPDLGVLC |  | inhibits the adhesion of RON strain in a dose-dependent manner | recognized | pos | pos | pos |
